Measurements as given in patent publication US20030138450A1.

Biological target: AMA1/E, refolded recombinant Plasmodium falciparum (3D7) AMA-1 ectodomain (amino acids 83-531) with N- and C-terminal histidine tags (Plasmodium falciparum 3D7) (UniProt P22621)
Assay: ELISA on plate-coated refolding mixtures of r-AMA1/E (GSH/GSSG 1/0.1 mM and 1/0.25 mM), against r-AMA1/E diluted in phosphate buffer with EDTA alone

## rat monoclonal antibody 4G2dc1
  fold ELISA reactivity over the phosphate buffer control: 5 fold
